Data taken from PMC3475689, “Leishmania donovani Argininosuccinate Synthase Is an Active Enzyme Associated with Parasite Pathogenesis” (PLoS Neglected Tropical Diseases, 2012).

B1: LdPEX5, PTS1 receptor protein peroxin 5 of Leishmania donovani, recombinant (receptor)
chain: MDCNTGMQLGQQFSKDATMMHGGVPMSGAMSEQDALMVGAQVAGANPMMAAQWAQNFQQQQAMQAMRQQHEMEQAFQNSQQQQAAAAQSRQMLGMAGPQQQQFMAQQQQASMMNAAMMSQGMMAANMGLGMMMPRTQYQPLPNLSALQPKQQQPLANLAPAAQDSAWADQLSQQQWSTDYSQVQTFSAPGMEDKTVEERIKDSEFYKFMDQVKNKEVLIDEEKGELVQGPGPEVGVPEDAEYLRHWAEMEGLHMPESVFQSPPPASAMTSPENGDPDAYVKEMDMAANDVEDWAQEYAEMQERLQKVTNSTDYPFEPNNPYMFHDFPFDEGMEMLQLGNLAEAALAFEAVCHKDSSNEKAWQILGTTQAENEKDGLAIIALNNARKLNPRNLEVHAALSVSHTNERNADAAMDSLKAWLVNHPEYEQLASVSIPPNAELDVQETFFFADPSRMREARTLYEAAIEMNPSDSQLFTNLGVLHNVAHEFDEAAECFRKAVALHPDDPKMWNKLGATLANGGHPDQALEAYNRALDINPGYVRAMYNMAVAYSNMSQYNMAARQIVKAIASQQGGTKPSGEGSIMATRNMWDLLRMTLNLMDRDDLVQLTYNEQLEPFVKEFGLEGHV
B2: LdIMPDH, glycosomal PTS1 protein inosine monophosphate dehydrogenase of Leishmania donovani, recombinant (enzyme, UniProt P21620 1-514, looked up)
chain: MATNNANYRIKTIKDGCTAEELFRGDGLTYNDFIILPGFIDFGAADVNISGQFTKRIRLHIPIVSSPMDTITENEMAKTMALMGGVGVLHNNCTVERQVEMVKSVKAYRNGFISKPKSVPPNTPISNIIRIKEEKGISGILVTENGDPHGKLLGIVCTKDIDYVKNKDTPVSAVMTRREKMTVERAPIQLEEAMDVLNRSRYGYLPIVNENDEVVNLCSRRDAVRARDYPHSTLDKSGRLICAAATSTRPEDKRRVAALADVGVDVLVLDSSQGNTIYQIAFIKWVKSTYPHLEVVAGNVVTQDQAKNLIDAGADGIRIGMGSGSICITQEVLACGRPQGTAVYKVAQYCASRGVPCTADGGLRQVGDICKALAIGANCAMLGGMLSGTTETPGEYFFKGGVRLKVYRGMGSLEAMSQGKESGKRYLSENEAVQVAQGVSGNVVDKGSAAKLIAYVSKGLQQSAQDIGEISFDAIREKMYAGQVLFSRRSPTAQGEGGVHSLHSYEKKLFAAKM
notes: Inosine monophosphate dehydrogenase (LdIMPDH) of Leishmania donovani, with the C-terminal tripeptide PTS1 signal Ala-Lys-Met; construct not described here
B3: V5His-LdASS^WT, recombinant Leishmania donovani argininosuccinate synthase with N-terminal V5 epitope and hexahistidine tags (enzyme, UniProt H9BG20 1-418, looked up)
chain: MPATATEVVCGKKPRVVLAYSGGLDTSVIIPWLKENYDYEVIACCANVGQGAGEIDGLEEKAKKSGASKLYLLDLREEYVTDYIFPTLKAGATYEGKYMLGTSHARPLIAKHLVEVAHKEGAVAICHGATGKGNDQVRFELAVMALDPSLKCVAPWREWNIKSREDAIDYAEAHGVPVPCTKSDLYSRDRNLWHISHEGMDLEDPANEPAYARLLRLCNTVEKAPDEAEYVAVQFEKGIPVAVNGRKMSSVELVEELNALGGKHAIGIEDIVEDRLVGMKSRGVYETPAGTILYKALDMLESLCLDRDTQSFKRQSAVRFSELVYDGKWFTPLRESMSAMFDQMAETVTGEATLKLYKGNLVPAGAQSPYSLYNKNIASFGDSKHLYNHHDAEGFIRLFGLPLRVRSMMKAKEMPSSL
notes: Argininosuccinate synthase (LdASS) of Leishmania donovani strain Ld1S2D; predicted protein identical to L. infantum LinJ.23.0300 and L. donovani BPK282A1 CBZ34226.1; C-terminal Ser-Ser-Leu (PTS1) left free; Made from the pCRT7 plasmid with primers F3/R3 and ligated into pEXP-5-NT/TOPO; also called rLdASS WT, N-terminal tagged; pEXP5-V5HisLdASS^WT; source: E. coli BL21 (DE3) pLysS, purified …

Columns and labels:
LdASS (V5His-LdASS^WT) = molecular target: T1, LdASS (V5His-LdASS^WT) (Leishmania donovani, UniProt H9BG20); assay: malachite green Pi release, pyrophosphatase-coupled; assay type: biochemical; conditions: read-out: % inhibition at 1 mM
T1 construct: full length (419 residues predicted, 46 kDa), N-terminal V5 and His6 tags kept; overexpressed in L. donovani amastigotes, Ni-NTA pull-down, assayed on beads; tetramer inferred from other ASS; CBZ34226.1 (BPK282A1) stated identical

[1] = molecular target: V5His-LdASS^G128S, recombinant Leishmania donovani argininosuccinate synthase G128S with N-terminal V5 epitope and hexahistidine tags (Leishmania donovani); assay: ELISA; plates coated with 100 µL of 10 µg/mL LdIMPDH or LdASS variant in PBS, 4°C, 16 h; blocked with 2% BSA; purified LdPEX5 at 0.01-400 nM; bound LdPEX5 detected with anti-LdPEX5 polyclonal antisera; apparent Kd
[2] = molecular target: T2, LdPEX5, PTS1 receptor protein peroxin 5 of Leishmania donovani, recombinant (Leishmania donovani, UniProt A0A3S7X906 1-625); assay: as above; conditions: both partners purified
T2 construct: Peroxin 5 (LdPEX5), the PTS1 receptor of Leishmania donovani; construct not described here; also called receptor peroxin 5; glycosomal PTS1 targeting receptor protein
T2 sequence (looked up): B1 chain

Row | Molecule | Kd [2] | other results
1 | CC(N)(CC(=O)O)C(=O)O (racemic) [MDLA, methyl-D-L-Aspartic acid] |  | inhibition at 1000 µM (LdASS (V5His-LdASS^WT)): ~60%
2 | B1 |  | Kd [1]: 5 nM
3 | B2 | ~5 nM | 
4 | B3 | ~5 nM | 
